Data as given in the supplement of paper PMC11136658.

System: peptide library, one residue held at a place counted from the Y acceptor
Test: relative phosphorylation of the sub-library (ratio to the mean residue at this position); higher = residue favoured
Outline: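 In 384-well plates, purified recombinant kinases were incubated for 90 min with 50 μM ATP containing γ-32P-ATP and biotinylated Tyr-centred peptide libraries, each mixture fixing one residue at a single position between −5 and +5. After capture on streptavidin membranes and rinsing, peptides were quantified by phosphorimaging with ImageQuant. Per-position intensities were scaled to the sum of the 18 (Ser/Thr-free library: 16) randomized residues, then multiplied by that number.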

Sequence of EPHA7, construct: aa579-end, human (Q15375 579-998, looked up): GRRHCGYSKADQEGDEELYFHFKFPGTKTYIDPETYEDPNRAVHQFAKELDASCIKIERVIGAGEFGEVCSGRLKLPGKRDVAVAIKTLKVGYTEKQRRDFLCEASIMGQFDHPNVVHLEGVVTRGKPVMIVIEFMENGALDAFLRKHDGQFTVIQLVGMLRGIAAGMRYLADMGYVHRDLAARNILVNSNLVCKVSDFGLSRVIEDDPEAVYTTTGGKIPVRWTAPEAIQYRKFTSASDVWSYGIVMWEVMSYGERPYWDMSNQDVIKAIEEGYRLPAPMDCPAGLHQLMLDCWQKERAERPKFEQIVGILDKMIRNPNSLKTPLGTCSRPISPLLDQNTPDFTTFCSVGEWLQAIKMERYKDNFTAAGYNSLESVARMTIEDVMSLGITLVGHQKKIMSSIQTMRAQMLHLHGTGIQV
Sequence of EPHA6, construct: aa683-end, human (Q9UF33 683-1036, looked up): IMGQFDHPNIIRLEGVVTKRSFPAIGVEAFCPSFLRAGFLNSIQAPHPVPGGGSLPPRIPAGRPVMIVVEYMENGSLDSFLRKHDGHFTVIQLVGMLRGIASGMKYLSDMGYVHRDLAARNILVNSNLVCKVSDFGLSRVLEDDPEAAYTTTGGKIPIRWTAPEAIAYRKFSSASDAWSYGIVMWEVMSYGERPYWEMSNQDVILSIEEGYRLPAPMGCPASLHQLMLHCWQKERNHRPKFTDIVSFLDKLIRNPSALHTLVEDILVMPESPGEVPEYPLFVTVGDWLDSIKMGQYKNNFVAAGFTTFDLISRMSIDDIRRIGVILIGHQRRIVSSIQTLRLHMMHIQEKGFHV

EPHA6, construct: aa683-end, human (from UniProt Q9UF33)
relative phosphorylation
Settings	at +1	at +2	at +3	at +4	at +5	at -1	at -2	at -3	at -4	at -5
A fixed	1.7	0.891	0.971	1.03	0.87	0.838	1.39	0.94	1.57	1.47
D fixed	0.944	1.3	0.585	0.688	0.91	2.67	1.15	1.18	0.754	0.894
E fixed	2.3	1.3	0.541	0.818	0.966	1.73	1.22	1.36	1.03	0.788
F fixed	0.862	1.19	0.94	1.06	1.12	0.701	0.668	1.09	0.859	0.811
G fixed	0.699	0.438	0.61	1.12	0.966	0.427	0.758	0.853	1.27	1.22
H fixed	0.72	1.13	1.03	1.15	1.24	0.733	0.886	1.01	0.973	1.21
I fixed	1.02	0.984	1.93	1	0.811	1.92	0.966	1.5	1.3	0.707
K fixed	0.62	1.03	0.901	1.06	1.04	0.593	1.17	0.842	0.944	1.15
L fixed	0.792	0.964	1.56	0.86	0.92	1.29	1.07	0.873	0.847	0.703
M fixed	1.08	0.917	1.26	0.988	0.955	0.737	0.85	0.943	0.881	0.802
N fixed	0.649	1.04	0.522	0.74	0.947	1.61	0.922	0.818	0.754	0.982
P fixed	0.352	0.594	1.05	1.29	1.03	0.504	1.2	0.876	1.15	1.03
Q fixed	1.31	0.779	0.716	0.882	0.942	0.535	1.02	0.735	0.942	0.998
R fixed	0.916	1.3	1.06	1.27	1.09	0.63	1.3	1.01	1.05	1.45
S fixed	0.808	0.748	0.684	0.848	0.993	0.535	1.21	0.951	0.826	0.949
T fixed	0.678	0.703	0.673	0.794	0.979	0.798	0.84	0.893	0.755	0.91
V fixed	1.54	1.06	1.64	1.08	0.85	1.2	0.781	1.11	1.2	0.954
W fixed	1	1.64	1.32	1.32	1.36	0.528	0.605	1.01	0.894	0.981
pThr fixed	1.37	1.63	0.624	0.561	0.816	2.9	1.03	0.842	0.799	0.686
pTyr fixed	1.48	3.8	0.659	0.576	1.01	2.12	0.946	0.911	0.73	0.677

EPHA7, construct: aa579-end, human (from UniProt Q15375)
relative phosphorylation
Settings	at +1	at +2	at +3	at +4	at +5	at -1	at -2	at -3	at -4	at -5
A fixed	1.63	0.698	0.618	0.79	1.04	0.492	1.21	0.817	1.18	1.03
D fixed	0.804	1.37	0.44	0.936	0.981	2.01	1.07	1.12	1.17	1.05
E fixed	3	1.79	0.398	1.01	1.04	1.39	1.31	1.43	1.14	0.918
F fixed	0.661	1.31	1.7	1.08	1.13	0.92	0.747	1.48	1.07	1.03
G fixed	0.476	0.39	0.464	1.21	1.12	0.251	1.15	0.953	1.34	1.19
H fixed	0.495	0.916	0.855	1.29	0.953	0.625	0.779	1.06	0.852	0.96
I fixed	1.65	1.04	2.77	0.729	0.818	2.61	0.88	1.08	0.939	1.04
K fixed	0.271	0.522	0.329	0.822	0.809	0.3	0.926	0.591	0.875	0.993
L fixed	0.905	0.894	1.97	0.718	1.03	2.03	0.845	0.944	1.11	0.96
M fixed	1.41	0.935	1.15	1.03	0.988	0.872	0.663	0.913	0.883	0.921
N fixed	0.429	1.21	0.479	0.793	0.815	1.99	0.985	0.995	0.772	1.1
P fixed	0.204	0.609	0.93	1.4	1.64	0.346	1.51	1.15	1.33	1.11
Q fixed	1.08	0.742	0.692	0.778	0.782	0.439	1.09	0.706	1.04	0.94
R fixed	0.358	0.924	0.455	1.03	0.859	0.489	1.05	0.759	0.945	1.1
S fixed	0.725	0.769	0.537	0.853	0.994	0.457	1.26	0.877	0.784	0.834
T fixed	0.803	0.994	0.615	0.904	1.01	1.1	0.921	0.895	0.673	0.851
V fixed	2.03	1.04	2.05	0.733	0.797	1.1	0.936	0.876	0.822	0.831
W fixed	1.06	1.84	1.55	1.89	1.19	0.569	0.67	1.36	1.07	1.15
pThr fixed	1.8	2.11	0.552	0.851	0.651	2.07	0.877	0.772	0.877	0.834
pTyr fixed	1.98	6.7	0.866	1.14	0.865	1.94	0.896	1.02	1.08	1.12
